First the molecules themselves.
B1: hingeNotch STS variant with BTC STS (…) (receptor, part only)
chain: HPLRKRRKRKKK
B2: hingeNotch STS variant with EPHA3 STS (…) (receptor, part only)
chain: RRRSKYSKAK
B3: hingeNotch STS variant with IL1R2 STS (…) (receptor, part only)
chain: HRRCKHRTGK
B4: hingeNotch STS variant with Notch3 STS (RRKREH) (receptor, part only)
chain: RRKREH
B5: hingeNotch STS variant with NRG2 STS (…) (receptor, part only)
chain: KTKKQRKQMHNHLR

The target in one assay is CD19 (UniProt P15391). The experiment in a line: cell-based or functional assay.
For the molecule “hingeNotch STS variant with Notch 4 STS (RRRREH) (receptor)”, the Average MFI Difference (MFI of ON - MFI of OFF) (BFP reporter; no CAR stimulation) is 1020 MFI; the Average MFI Difference (MFI of ON - MFI of OFF) (BFP reporter; with CAR stimulation by ALPPL2+ K562) amounted to 1480 MFI; the Average Signal To Noise (BFP reporter MFI, CD19+ K562 vs K562; no CAR stimulation) was 10.3; the Average Signal To Noise (BFP reporter MFI, CD19+ K562 vs K562; with CAR stimulation by ALPPL2+ K562) is 24.1.

“hingeNotch STS variant with LRP1B STS (…) (receptor)” yielded an Average MFI Difference (MFI of ON - MFI of OFF) (BFP reporter; no CAR stimulation) of 1010 MFI; an Average MFI Difference (MFI of ON - MFI of OFF) (BFP reporter; with CAR stimulation by ALPPL2+ K562) of 2560 MFI; an Average Signal To Noise (BFP reporter MFI, CD19+ K562 vs K562; no CAR stimulation) of 2.32; an Average Signal To Noise (BFP reporter MFI, CD19+ K562 vs K562; with CAR stimulation by ALPPL2+ K562) of 10.3.

Take “hingeNotch STS variant with NRG1 STS (…) (receptor)”: the Average MFI Difference (MFI of ON - MFI of OFF) (BFP reporter; no CAR stimulation) was determined as 806 MFI; the Average MFI Difference (MFI of ON - MFI of OFF) (BFP reporter; with CAR stimulation by ALPPL2+ K562) worked out at 637 MFI; the Average Signal To Noise (BFP reporter MFI, CD19+ K562 vs K562; no CAR stimulation) came to 9.42; the Average Signal To Noise (BFP reporter MFI, CD19+ K562 vs K562; with CAR stimulation by ALPPL2+ K562) stood at 25.

“hingeNotch STS variant with KL STS (KKGRRSYK) (receptor)” displayed an Average MFI Difference (MFI of ON - MFI of OFF) (BFP reporter; no CAR stimulation) of 880 MFI; an Average MFI Difference (MFI of ON - MFI of OFF) (BFP reporter; with CAR stimulation by ALPPL2+ K562) of 1570 MFI; an Average Signal To Noise (BFP reporter MFI, CD19+ K562 vs K562; no CAR stimulation) of 3.72; an Average Signal To Noise (BFP reporter MFI, CD19+ K562 vs K562; with CAR stimulation by ALPPL2+ K562) of 6.53.

Molecule “hingeNotch STS variant with AGER STS (RRQRR) (receptor)” showed an Average MFI Difference (MFI of ON - MFI of OFF) (BFP reporter; no CAR stimulation) of 1130 MFI; an Average MFI Difference (MFI of ON - MFI of OFF) (BFP reporter; with CAR stimulation by ALPPL2+ K562) of 1790 MFI; an Average Signal To Noise (BFP reporter MFI, CD19+ K562 vs K562; no CAR stimulation) of 11.9; an Average Signal To Noise (BFP reporter MFI, CD19+ K562 vs K562; with CAR stimulation by ALPPL2+ K562) of 106.

In the case of “hingeNotch STS variant with Jag2 STS (…) (receptor)”, the Average MFI Difference (MFI of ON - MFI of OFF) (BFP reporter; no CAR stimulation) was found to be 1320 MFI; the Average MFI Difference (MFI of ON - MFI of OFF) (BFP reporter; with CAR stimulation by ALPPL2+ K562) was found to be 3320 MFI; the Average Signal To Noise (BFP reporter MFI, CD19+ K562 vs K562; no CAR stimulation) came to 5.09; the Average Signal To Noise (BFP reporter MFI, CD19+ K562 vs K562; with CAR stimulation by ALPPL2+ K562) was found to be 21.4.

“hingeNotch STS variant with KCNE3 STS (RSRKVDKR) (receptor)” displayed an Average MFI Difference (MFI of ON - MFI of OFF) (BFP reporter; no CAR stimulation) of 976 MFI; an Average MFI Difference (MFI of ON - MFI of OFF) (BFP reporter; with CAR stimulation by ALPPL2+ K562) of 1900 MFI; an Average Signal To Noise (BFP reporter MFI, CD19+ K562 vs K562; no CAR stimulation) of 9.78; an Average Signal To Noise (BFP reporter MFI, CD19+ K562 vs K562; with CAR stimulation by ALPPL2+ K562) of 62.5.

In turn, “hingeNotch STS variant with Notch 2 STS (KRKRKH) (receptor)” had an Average MFI Difference (MFI of ON - MFI of OFF) (BFP reporter; no CAR stimulation) of 1260 MFI; an Average MFI Difference (MFI of ON - MFI of OFF) (BFP reporter; with CAR stimulation by ALPPL2+ K562) of 4190 MFI; an Average Signal To Noise (BFP reporter MFI, CD19+ K562 vs K562; no CAR stimulation) of 5.24; an Average Signal To Noise (BFP reporter MFI, CD19+ K562 vs K562; with CAR stimulation by ALPPL2+ K562) of 15.5.

Regarding “hingeNotch STS variant with GHR STS (KQQRIK) (receptor)”, the Average MFI Difference (MFI of ON - MFI of OFF) (BFP reporter; no CAR stimulation) was found to be 141 MFI; the Average MFI Difference (MFI of ON - MFI of OFF) (BFP reporter; with CAR stimulation by ALPPL2+ K562) is -51.5 MFI; the Average Signal To Noise (BFP reporter MFI, CD19+ K562 vs K562; no CAR stimulation) came out at 2.22; the Average Signal To Noise (BFP reporter MFI, CD19+ K562 vs K562; with CAR stimulation by ALPPL2+ K562) came to 2.67.

In turn, “hingeNotch STS variant with EPCAM STS (…) (receptor)” displayed an Average MFI Difference (MFI of ON - MFI of OFF) (BFP reporter; no CAR stimulation) of 864 MFI; an Average MFI Difference (MFI of ON - MFI of OFF) (BFP reporter; with CAR stimulation by ALPPL2+ K562) of 2370 MFI; an Average Signal To Noise (BFP reporter MFI, CD19+ K562 vs K562; no CAR stimulation) of 1.64; an Average Signal To Noise (BFP reporter MFI, CD19+ K562 vs K562; with CAR stimulation by ALPPL2+ K562) of 2.48.

“hingeNotch STS variant with DAG1 STS (RKKRKGK) (receptor)” yielded an Average MFI Difference (MFI of ON - MFI of OFF) (BFP reporter; no CAR stimulation) of 2520 MFI; an Average MFI Difference (MFI of ON - MFI of OFF) (BFP reporter; with CAR stimulation by ALPPL2+ K562) of 4640 MFI; an Average Signal To Noise (BFP reporter MFI, CD19+ K562 vs K562; no CAR stimulation) of 2.82; an Average Signal To Noise (BFP reporter MFI, CD19+ K562 vs K562; with CAR stimulation by ALPPL2+ K562) of 7.4.

In turn, “hingeNotch STS variant with CDH2 STS (…) (receptor)” had an Average MFI Difference (MFI of ON - MFI of OFF) (BFP reporter; no CAR stimulation) of 1130 MFI; an Average MFI Difference (MFI of ON - MFI of OFF) (BFP reporter; with CAR stimulation by ALPPL2+ K562) of 2830 MFI; an Average Signal To Noise (BFP reporter MFI, CD19+ K562 vs K562; no CAR stimulation) of 2.26; an Average Signal To Noise (BFP reporter MFI, CD19+ K562 vs K562; with CAR stimulation by ALPPL2+ K562) of 4.24.

On to “hingeNotch STS variant with CSF1R STS (KYKQKPK) (receptor)”, for which the Average MFI Difference (MFI of ON - MFI of OFF) (BFP reporter; no CAR stimulation) stood at 801 MFI; the Average MFI Difference (MFI of ON - MFI of OFF) (BFP reporter; with CAR stimulation by ALPPL2+ K562) was 1510 MFI; the Average Signal To Noise (BFP reporter MFI, CD19+ K562 vs K562; no CAR stimulation) stood at 3.09; the Average Signal To Noise (BFP reporter MFI, CD19+ K562 vs K562; with CAR stimulation by ALPPL2+ K562) was 5.45.

For “hingeNotch STS variant with PTPRF STS (KRKRTH) (receptor)”, the Average MFI Difference (MFI of ON - MFI of OFF) (BFP reporter; no CAR stimulation) turned out to be 1180 MFI; the Average MFI Difference (MFI of ON - MFI of OFF) (BFP reporter; with CAR stimulation by ALPPL2+ K562) came to 2570 MFI; the Average Signal To Noise (BFP reporter MFI, CD19+ K562 vs K562; no CAR stimulation) is 10.5; the Average Signal To Noise (BFP reporter MFI, CD19+ K562 vs K562; with CAR stimulation by ALPPL2+ K562) amounted to 50.8.

Molecule “hingeNotch STS variant with CXCL16 STS (KRRR) (receptor)” came in with an Average MFI Difference (MFI of ON - MFI of OFF) (BFP reporter; no CAR stimulation) of 1290 MFI; an Average MFI Difference (MFI of ON - MFI of OFF) (BFP reporter; with CAR stimulation by ALPPL2+ K562) of 1690 MFI; an Average Signal To Noise (BFP reporter MFI, CD19+ K562 vs K562; no CAR stimulation) of 14.4; an Average Signal To Noise (BFP reporter MFI, CD19+ K562 vs K562; with CAR stimulation by ALPPL2+ K562) of 27.9.

The target of another assay is CD19 (UniProt P15391). The experiment in a line: cell-based or functional assay. This is another data set of the same source.
B1 had an Average MFI Difference (MFI of ON - MFI of OFF) (BFP reporter; no CAR stimulation) of 480 MFI; an Average MFI Difference (MFI of ON - MFI of OFF) (BFP reporter; with CAR stimulation by ALPPL2+ K562) of 423 MFI; an Average Signal To Noise (BFP reporter MFI, CD19+ K562 vs K562; no CAR stimulation) of 1.23; an Average Signal To Noise (BFP reporter MFI, CD19+ K562 vs K562; with CAR stimulation by ALPPL2+ K562) of 1.71.

As for B2, the Average MFI Difference (MFI of ON - MFI of OFF) (BFP reporter; no CAR stimulation) worked out at 1290 MFI; the Average MFI Difference (MFI of ON - MFI of OFF) (BFP reporter; with CAR stimulation by ALPPL2+ K562) was determined as 2270 MFI; the Average Signal To Noise (BFP reporter MFI, CD19+ K562 vs K562; no CAR stimulation) amounted to 2.97; the Average Signal To Noise (BFP reporter MFI, CD19+ K562 vs K562; with CAR stimulation by ALPPL2+ K562) stood at 6.31.

B3 showed an Average MFI Difference (MFI of ON - MFI of OFF) (BFP reporter; no CAR stimulation) of 980 MFI; an Average MFI Difference (MFI of ON - MFI of OFF) (BFP reporter; with CAR stimulation by ALPPL2+ K562) of 2030 MFI; an Average Signal To Noise (BFP reporter MFI, CD19+ K562 vs K562; no CAR stimulation) of 2.41; an Average Signal To Noise (BFP reporter MFI, CD19+ K562 vs K562; with CAR stimulation by ALPPL2+ K562) of 4.78.

For the molecule B4, the Average MFI Difference (MFI of ON - MFI of OFF) (BFP reporter; no CAR stimulation) was determined as 1190 MFI; the Average MFI Difference (MFI of ON - MFI of OFF) (BFP reporter; with CAR stimulation by ALPPL2+ K562) turned out to be 1990 MFI; the Average Signal To Noise (BFP reporter MFI, CD19+ K562 vs K562; no CAR stimulation) is 12.8; the Average Signal To Noise (BFP reporter MFI, CD19+ K562 vs K562; with CAR stimulation by ALPPL2+ K562) worked out at 29.2.

Regarding B5, the Average MFI Difference (MFI of ON - MFI of OFF) (BFP reporter; no CAR stimulation) stood at 1260 MFI; the Average MFI Difference (MFI of ON - MFI of OFF) (BFP reporter; with CAR stimulation by ALPPL2+ K562) is 2200 MFI; the Average Signal To Noise (BFP reporter MFI, CD19+ K562 vs K562; no CAR stimulation) stood at 8.32; the Average Signal To Noise (BFP reporter MFI, CD19+ K562 vs K562; with CAR stimulation by ALPPL2+ K562) is 15.8.

Source of the values: patent US20220133797A1.
